We go through 167 variants from the RNAGym collection of RNA variant scans (doi:10.7554/elife.80360).

To fix the notation:
B1: Hammerhead Ribozyme (parent)
chain: ACCGGAUGUGCUUUCCGGUCUGAUGAGUCCGUGAGGACGAAACAG

In this data set the parent is B1. Briefly: self-cleavage, relative activity (ratio to wild type); higher = more cleavage; co-transcriptional.
As for A6C G27U, the self-cleavage turned out to be 0.38. In the case of A6C G27C it was 0.478.

With A6C G27A, the self-cleavage was 0.56. In the case of A6G A41C it was 0.299. As for A6G A41G, the self-cleavage stood at 0.266. For the variant A6G A41U, the self-cleavage came to 0.273. Consider G5U U12C, for which the self-cleavage turned out to be 0.804.

Take G5U U12G: the self-cleavage stood at 0.806. As to G5U U12A, the self-cleavage was found to be 1.1. G5U U14C: the self-cleavage came out at 0.837. Take G5U U14G: the self-cleavage was 1.29. As to G5U U14A, the self-cleavage was 1.24. Turning to A6G C20U, the self-cleavage turned out to be 0.432. Under A6G C20A stands 0.4; under A6G C20G, 0.236. With A6U A37U, the self-cleavage was 0.451. A6U A37C: the self-cleavage turned out to be 0.677. In the case of A6U A37G it was 0.529; in that of G5U U7G, 0.708. Regarding G5U U7C, the self-cleavage stood at 0.716. In the case of G5U U7A, the self-cleavage was 0.87. A6G G27U: the self-cleavage came out at 0.356. As to A6G G27C, the self-cleavage stood at 0.45. A6G G27A: the self-cleavage amounted to 0.657.

A6G A26U: the self-cleavage is 0.71. In the case of A6G A26C it was 0.396.

Turning to A6G A26G, the self-cleavage worked out at 0.303. In the case of A6C U13A it was 0.906.

Consider A6C U13C, for which the self-cleavage amounted to 0.598.

On to A6C U13G, for which the self-cleavage stood at 0.673. In the case of A6C A42G it was 0.329; in that of A6C A42C, 0.35. Regarding A6C A42U, the self-cleavage was 0.295. As for A6G C15A, the self-cleavage stood at 0.707. In the case of A6G C15G, the self-cleavage came out at 0.54. Under A6G C15U stands 0.811. As for A6G A40G, the self-cleavage is 0.213. A6G A40U: the self-cleavage was 0.247.

Take A6G A40C: the self-cleavage came out at 0.355. As for A6G U9G, the self-cleavage came to 1.09. Turning to A6G U9A, the self-cleavage amounted to 0.796. Under A6G U9C stands 0.834; under A6C U9A, 0.479; under A6C U9C, 0.486. Under A6C U9G stands 0.578; under A6G G36U, 0.314.

A6G G36A: the self-cleavage was determined as 0.624.

In the case of A6G G36C, the self-cleavage was 0.351. In the case of A6U C16A it was 0.471; in that of A6U C16U, 0.655; in that of A6U C16G, 0.459. In the case of A6G U21C it was 0.54; in that of A6G U21G, 0.472; in that of A6G U21A, 0.393. Under G5U U19C stands 0.396; under G5U U19G, 0.379; under G5U U19A, 0.29. As for A6G C43G, the self-cleavage is 0.284. In the case of A6G C43A it was 0.217; in that of A6G C43U, 0.321; in that of A6G G39U, 0.248.

In the case of A6G G39C, the self-cleavage was 0.297. Under A6G G39A stands 0.31.

With A6G G18C, the self-cleavage was 0.351. In the case of A6G G18A it was 0.486; in that of A6G G18U, 0.468; in that of A6C U7G, 0.392. Regarding A6C U7C, the self-cleavage is 0.577. Under A6C U7A stands 0.311; under A6C A41C, 0.274. In the case of A6C A41G it was 0.374. In the case of A6C A41U, the self-cleavage turned out to be 0.383. Under A6C U21G stands 0.415; under A6C U21A, 0.475.

Regarding A6C U21C, the self-cleavage was 0.389. In the case of A6U A40U, the self-cleavage was 0.351. A6U A40C: the self-cleavage stood at 0.268. Under A6U A40G stands 0.317; under A6C U12A, 0.826. In the case of A6C U12C it was 0.899; in that of A6C U12G, 0.991; in that of G5U G25U, 0.355.

As to G5U G25A, the self-cleavage came to 0.351.

For the variant G5U G25C, the self-cleavage is 0.301.

On to A6U C29G, for which the self-cleavage worked out at 0.468. In the case of A6U C29U it was 0.451; in that of A6U C29A, 0.475; in that of A6U A44C, 0.455.

A6U A44U: the self-cleavage is 0.36. In the case of A6U A44G it was 1.12; in that of A6C G39U, 0.271; in that of A6C G39C, 0.368. Under A6C G39A stands 0.311. Consider A6C C29A, for which the self-cleavage was 0.44. In the case of A6C C29G it was 0.482; in that of A6C C29U, 0.695. A6C G10U: the self-cleavage is 1.01. Under A6C G10C stands 0.515; under A6C G10A, 0.68. With A6G A34C, the self-cleavage came to 0.604. In the case of A6G A34U it was 0.82; in that of A6G A34G, 0.6.

Consider G5U G39A, for which the self-cleavage came to 0.339. Under G5U G39U stands 0.33; under G5U G39C, 0.306; under A6G C29A, 0.36. With A6G C29G, the self-cleavage came to 0.498. Regarding A6G C29U, the self-cleavage came out at 0.89.

For G5U U24G, the self-cleavage came out at 0.636. In the case of G5U U24C it was 0.922; in that of G5U U24A, 0.809. A6U C20U: the self-cleavage was found to be 0.454. For A6U C20A, the self-cleavage amounted to 0.373. A6U C20G: the self-cleavage is 0.378. In the case of A6G G33C, the self-cleavage amounted to 0.597. In the case of A6G G33A, the self-cleavage was 0.844. In the case of A6G G33U, the self-cleavage amounted to 0.863. On to A6G U12C, for which the self-cleavage is 0.802. Under A6G U12A stands 0.819; under A6G U12G, 0.802. Under G5U U28G stands 0.376; under G5U U28A, 0.361; under G5U U28C, 0.458. Consider A6G U28A, for which the self-cleavage was 0.468. Take A6G U28G: the self-cleavage was 0.461.

As for A6G U28C, the self-cleavage was determined as 0.792. Under A6C G31A stands 0.778; under A6C G31U, 0.884. In the case of A6C G31C it was 0.573; in that of A6C G17U, 0.37; in that of A6C G17A, 0.348. In the case of A6C G17C it was 0.269. In the case of A6G U32A, the self-cleavage turned out to be 0.968. Under A6G U32C stands 0.931. Take A6G U32G: the self-cleavage turned out to be 0.431. In the case of G5U G35U it was 0.516. G5U G35C: the self-cleavage came out at 0.361. As for G5U G35A, the self-cleavage amounted to 0.476. In the case of A6C U32G it was 0.477; in that of A6C U32C, 0.838; in that of A6C U32A, 0.901. For G5U G27A, the self-cleavage was determined as 0.504. Under G5U G27U stands 0.366; under G5U G27C, 0.491. Consider A6G C38U, for which the self-cleavage came out at 0.629. Take A6G C38A: the self-cleavage is 0.454. For the variant A6G C38G, the self-cleavage was determined as 0.448. Regarding A6C C43U, the self-cleavage was found to be 0.429. As to A6C C43G, the self-cleavage amounted to 0.294. In the case of A6C C43A it was 0.287.

As to A6C U14C, the self-cleavage worked out at 0.495. Under A6C U14G stands 0.508. For the variant A6C U14A, the self-cleavage amounted to 0.536. Under A6C U28G stands 0.354. Take A6C U28C: the self-cleavage is 0.604. In the case of A6C U28A it was 0.191. In the case of A6G G45A it was 0.556. Under A6G G45C stands 0.433; under A6G G45U, 0.597. On to A6C A44C, for which the self-cleavage turned out to be 0.391. In the case of A6C A44G it was 1.06; in that of A6C A44U, 0.36; in that of G5U U9A, 0.723.

Turning to G5U U9C, the self-cleavage is 0.881. With G5U U9G, the self-cleavage is 0.523. Under A6G U24G stands 0.777; under A6G U24C, 0.944.
